The assay has as its target T1, Human C-reactive protein, pentameric (pCRP) (human), P02741.
T1 chain: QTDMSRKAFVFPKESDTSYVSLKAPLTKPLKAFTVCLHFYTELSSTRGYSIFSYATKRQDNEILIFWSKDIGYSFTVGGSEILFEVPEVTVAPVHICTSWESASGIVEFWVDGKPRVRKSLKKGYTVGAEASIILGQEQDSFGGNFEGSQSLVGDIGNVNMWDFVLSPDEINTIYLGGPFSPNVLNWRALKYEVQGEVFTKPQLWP
The experiment in a line: crystal structure; pCRP at 8 mg/ml in 20 mM Tris, 140 mM NaCl, 2 mM CaCl2, co-crystallised with C10M (1:3 molar ratio pCRP:C10M); hanging drop at 20°C; well buffer 100 mM Tris pH 9, 10% PEG 4000, 50 mM LiCl, 200 mM MgCl2; oligomer seen: pentamer. To be noted: remark: other sources report otherwise.

In paper PMC9832874 one finds stoichiometry N data, which are given here for one molecule.

B1: Human C-reactive protein, pentameric (pCRP), P02741 19-224 (natural protein)
chain: QTDMSRKAFVFPKESDTSYVSLKAPLTKPLKAFTVCLHFYTELSSTRGYSIFSYATKRQDNEILIFWSKDIGYSFTVGGSEILFEVPEVTVAPVHICTSWESASGIVEFWVDGKPRVRKSLKKGYTVGAEASIILGQEQDSFGGNFEGSQSLVGDIGNVNMWDFVLSPDEINTIYLGGPFSPNVLNWRALKYEVQGEVFTKPQLWP
What is called stoichiometry N is the number of molecules, sites or subunits per partner or assembly. As to B1, the stoichiometry N amounted to 5.
